The source of these data is patent publication US20220380463A1 (Adimab, published 2022).

The chains are these.
T1: Cynomolgus CD3εδ Fc heterodimer (Cy CD3ε Fc / CD3δ Fc-HIS) (cynomolgus, UniProt Q95LI8 22-100)
T1 chain 1: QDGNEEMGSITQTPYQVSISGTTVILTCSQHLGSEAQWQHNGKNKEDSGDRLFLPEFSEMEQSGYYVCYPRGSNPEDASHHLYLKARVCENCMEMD
T1 chain 2: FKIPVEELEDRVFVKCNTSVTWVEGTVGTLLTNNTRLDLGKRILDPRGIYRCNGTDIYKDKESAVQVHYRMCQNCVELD

B1: SAD10319_P03_A08 (ADI-48636) (antibody, V domains shown)
VH: QVQLVQSGAEVKKPGASVKVSCKASGYTFTDYDMHWVRQAPGQRLEWMGWIDAGTGLTKYSQKFQGRVTITRDTSASTAYMELSSLRSEDTAVYYCARDHYGHYFYDVWGQGTLVTVSS
VL: DIVMTQSPDSLAVSLGERATINCKSSQSLLNARTGKNYLAWYQQKPGQPPKLLIYWASTRESGVPDRFSGSGSGTDFTLTISSLQAEDVAVYYCKQSYSRRTFGGGTKVEIK
notes: IgG; also called Ab230
B2: SAD10319_P03_E07 (ADI-48635) (antibody, V domains shown)
VH: B1 VH with T30E, D31S, L57A, K59T, H100A, G102H
VL: B1 VL
notes: IgG; also called Ab17
B3: SAD10319_P01_F03 (ADI-48627) (antibody, V domains shown)
VH: B1 VH with T30E, D31S, D52N, L57A, K59V, H100A, G102H
VL: B1 VL
notes: IgG; also called Ab246
B4: SAD10319_P03_C07 (ADI-48634) (antibody, V domains shown)
VH: B1 VH with T30E, D31S, L57A, K59T, H100A, G102H
VL: B1 VL
notes: IgG; also called Ab17
B5: SAD10319_P02_G06 (ADI-48632) (antibody, V domains shown)
VH: B1 VH with D31S, D33A, D52N, A53P, G54D, L57A, K59V, H100A, G102H
VL: B1 VL
notes: IgG; also called Ab15
B6: SAD10319_P03_E08 (ADI-48637) (antibody, V domains shown)
VH: QVQLVQSGAEVKKPGASVKVSCKASGYTFNDYAMHWVRQAPGQRLEWMGYINGTGATVYSQKFQGRVTITRDTSASTAYMELSSLRSEDTAVYYCARDAYHHYFYDVWSQGTLVTVSS
VL: B1 VL
notes: IgG; also called Ab21
B7: SAD10319_P03_B09 (ADI-48639) (antibody, V domains shown)
VH: B1 VH with D31E, L57A, K59V, H100A, H103R, V108H
VL: B1 VL
notes: IgG; also called Ab24
B8: SAD10319_P03_G08 (ADI-48638) (antibody, V domains shown)
VH: B1 VH with T30S, D31S, L57F, H100A, V108H
VL: B1 VL
notes: IgG; also called Ab22
B9: SAD10319_P01_C03 (ADI-48626) (antibody, V domains shown)
VH: B1 VH with A53P, G54Y, L57A, H100A
VL: B1 VL
notes: IgG; also called Ab244
B10: SAD10319_P04_E12 (ADI-48642) (antibody, V domains shown)
VH: B1 VH with D31S, D33P, K59T, G102H, H103R, V108M
VL: B1 VL
notes: IgG; also called Ab43
B11: SAD10319_P02_E05 (ADI-48630) (antibody, V domains shown)
VH: B1 VH with T30D, D31S, D33I, L57A, K59V, H100A, V108H
VL: B1 VL
notes: IgG; also called Ab4
B12: SAD10319_P02_A05 (ADI-48629) (antibody, V domains shown)
VH: B1 VH with T30D, D31S, D33A, D52N, A53P, G54N, L57A, K59T
VL: B1 VL
notes: IgG; also called Ab255
B13: SAD10319_P03_E09 (ADI-48640) (antibody, V domains shown)
VH: B1 VH with T30L, D31S, L57A, K59T, H100A, G102H
VL: B1 VL
notes: IgG; also called Ab26
B14: SAD10319_P02_D06 (ADI-48631) (antibody, V domains shown)
VH: B1 VH with D33A, D52N, L57A, K59I, H100A, G102H
VL: B1 VL
notes: IgG; also called Ab11
B15: SAD10319_P02_H06 (ADI-48633) (antibody, V domains shown)
VH: B1 VH with D31A, D33V, W50S, L57N, H100A, V108H
VL: B1 VL
notes: IgG; also called Ab16
B16: SAD10319_P04_G11 (ADI-48641) (antibody, V domains shown)
VH: B1 VH with S21Y, D31T, D33E, W50S, D52N, T55D, G56A, L57N, H100A, G102H
VL: B1 VL
notes: IgG; also called Ab39
B17: SAD10319_P01_E02 (ADI-57304) (antibody, V domains shown)
VH: B1 VH with D31S, Y32D, D33F, D52N, A53P, G54A, L57A, H100A, V108H
VL: B1 VL
notes: IgG; also called Ab240
B18: SAD10319_P02_C06 (ADI-57322) (antibody, V domains shown)
VH: B1 VH with D31S, D33A, D52N, A53P, G54V, L57A, K59V, H100A
VL: B1 VL
notes: IgG; also called Ab10
B19: SAD10319_P02_H06 (ADI-48633) (antibody, V domains shown)
VH: B1 VH with D31A, D33V, W50S, L57N, H100A, V108H
VL: B1 VL
notes: IgG; also called Ab16
B20: SAD10319_P02_F06 (ADI-57324) (antibody, V domains shown)
VH: B1 VH with T30L, D31S, D33A, W47R, D52N, A53P, G54S, L57A, K59D, H100A
VL: B1 VL
notes: IgG; also called Ab13
B21: SAD10319_P02_F04 (ADI-57312) (antibody, V domains shown)
VH: QVQLVQSGAEVKKPGASVKVSCKASGYTFDSYTMHWVRQAPGQRLEWMGYINPDTGATYYSQKFQGRVTITRDTSASTAYMELSSLRSEDTAVYYCARDAYHHYFYDVWGQGTLVTVSS
VL: B1 VL
notes: IgG; also called Ab253
B22: SAD10319_P02_E06 (ADI-57323) (antibody, V domains shown)
VH: B21 VH with D30A, S31D, T33A, E46A, Y50W, D54H, Y59F, H102G, H103R, V108H
VL: B1 VL
notes: IgG; also called Ab12
B23: SAD10319_P02_E04 (ADI-57311) (antibody, V domains shown)
VH: B1 VH with T30E, D31S, D33Y, W47R, W50S, D52V, L57A, H103R, L114P
VL: B1 VL
notes: IgG; also called Ab252
B24: SAD10319_P02_A06 (ADI-57320) (antibody, V domains shown)
VH: B1 VH with T30D, D31A, D33A, L57A
VL: B1 VL
notes: IgG; also called Ab8

Positions count from the first letter of the chain named.

T2 sequence (P07766 23-207): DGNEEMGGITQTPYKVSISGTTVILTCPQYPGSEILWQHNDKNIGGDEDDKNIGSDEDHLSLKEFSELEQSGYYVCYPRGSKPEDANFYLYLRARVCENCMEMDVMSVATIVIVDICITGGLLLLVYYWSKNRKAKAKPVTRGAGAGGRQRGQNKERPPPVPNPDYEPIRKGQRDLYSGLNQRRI

One assay has as its target T2, human CD3 on CD3+ Jurkat cells (human, UniProt P07766 23-207).
T2 construct: whole, on cells; Native CD3 complex on cells; the other CD3 chains are not specified for this assay; also called Human CD3+ Jurkat
Kind of assay: flow cytometry, 100 nM IgG on CD3+ Jurkat cells, pH 6.0. The essentials: (§1)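 Jurkat cells incubated 20 min on ice with 100 nM yeast-produced IgG in PBS + 0.1% BSA at pH 6.0 or pH 7.4, with all washes and staining at the same pH. Bound antibody detected with anti-human IgG-RPE, dead cells excluded by propidium iodide; MFI measured by flow cytometry.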
For B1, the “MFI pH 6.0” value stood at 897 MFI.

In the case of B2, the “MFI pH 6.0” value is 623 MFI.

In the case of B3, the “MFI pH 6.0” value was determined as 335 MFI.

For B4, the “MFI pH 6.0” value stood at 651 MFI.

For B5, the “MFI pH 6.0” value came to 1620 MFI.

With B6, the “MFI pH 6.0” value amounted to 244 MFI.

For B7, the “MFI pH 6.0” value was found to be 897 MFI.

In the case of B8, the “MFI pH 6.0” value came to 2000 MFI.

Regarding B9, the “MFI pH 6.0” value turned out to be 3160 MFI.

As to B10, the “MFI pH 6.0” value came to 332 MFI.

In the case of B11, the “MFI pH 6.0” value came to 5540 MFI.

With B12, the “MFI pH 6.0” value is 1780 MFI.

Consider B13, for which the “MFI pH 6.0” value amounted to 772 MFI.

Regarding B14, the “MFI pH 6.0” value is 3100 MFI.

On to B15, for which the “MFI pH 6.0” value is 2790 MFI.

As to B16, the “MFI pH 6.0” value came out at 59 MFI.

The next assay deals with T1, Cynomolgus CD3εδ Fc heterodimer (Cy …). The assay can be described thus: BLI (Octet), IgG on AHC sensor, pH 7.4.
Regarding B17, the Kd worked out at 145 nM, the koff turned out to be 0.0355 s⁻¹ and the kon amounted to 245000 M⁻¹ s⁻¹.

In turn, B18 displayed a Kd of 51.3 nM, a koff of 0.0255 s⁻¹ and a kon of 496000 M⁻¹ s⁻¹.

Molecule B19 yielded a Kd of 78 nM, a koff of 0.0171 s⁻¹ and a kon of 220000 M⁻¹ s⁻¹.

B20 showed a Kd of 134 nM, a koff of 0.0331 s⁻¹ and a kon of 247000 M⁻¹ s⁻¹.

Molecule B21 displayed a Kd of 117 nM, a koff of 0.0301 s⁻¹ and a kon of 257000 M⁻¹ s⁻¹.

Molecule B22 registered a Kd of 60.6 nM, a koff of 0.0267 s⁻¹ and a kon of 440000 M⁻¹ s⁻¹.

Molecule B23 returned a Kd of 64.1 nM, a koff of 0.0208 s⁻¹ and a kon of 324000 M⁻¹ s⁻¹.

The molecule B24 registered a Kd of 30.2 nM, a koff of 0.0115 s⁻¹ and a kon of 383000 M⁻¹ s⁻¹.

The next assay has the same target. Kind of assay: BLI (Octet), IgG on AHC sensor, pH 6.0.
The molecule B17 had a koff of 0.0248 s⁻¹.

Take B18: the koff was 0.023 s⁻¹.

Turning to B19, the koff worked out at 0.0188 s⁻¹.

In the case of B20, the koff is 0.0122 s⁻¹.

For B21, the koff turned out to be 0.0317 s⁻¹.

B22 displayed a koff of 0.00251 s⁻¹.

As to B23, the koff is 0.0215 s⁻¹.

B24: the koff was found to be 0.0327 s⁻¹.

The target of another assay is T2, human CD3 on CD3+ Jurkat cells. The assay can be described thus: flow cytometry, 100 nM IgG on CD3+ Jurkat cells, pH 7.4. The essentials: as §1
Regarding B1, the “MFI pH 7.4” value stood at 35 MFI.

On to B2, for which the “MFI pH 7.4” value came out at 54 MFI.

Take B3: the “MFI pH 7.4” value came to 45 MFI.

As to B4, the “MFI pH 7.4” value was determined as 44 MFI.

Take B5: the “MFI pH 7.4” value was found to be 107 MFI.

Turning to B6, the “MFI pH 7.4” value was 73 MFI.

Take B7: the “MFI pH 7.4” value was determined as 55 MFI.

With B8, the “MFI pH 7.4” value amounted to 84 MFI.

For the molecule B9, the “MFI pH 7.4” value amounted to 369 MFI.

Consider B10, for which the “MFI pH 7.4” value was 55 MFI.

In the case of B11, the “MFI pH 7.4” value is 5060 MFI.

As for B12, the “MFI pH 7.4” value was 499 MFI.

With B13, the “MFI pH 7.4” value worked out at 56 MFI.

For B14, the “MFI pH 7.4” value was found to be 232 MFI.

As for B15, the “MFI pH 7.4” value was 1450 MFI.

Take B16: the “MFI pH 7.4” value turned out to be 52 MFI.

The next assay has the same target. The assay can be described thus: flow cytometry on CD3+ Jurkat cells, ratio of MFI at pH 6.0 to pH 7.4. The essentials: as §1
Turning to B1, the “MFI pH 6.0/MFI pH 7.4” value is 25.9.

B2: the “MFI pH 6.0/MFI pH 7.4” value is 11.6.

For B3, the “MFI pH 6.0/MFI pH 7.4” value was found to be 7.4.

For the molecule B4, the “MFI pH 6.0/MFI pH 7.4” value amounted to 14.7.

With B5, the “MFI pH 6.0/MFI pH 7.4” value was found to be 15.1.

Consider B6, for which the “MFI pH 6.0/MFI pH 7.4” value was 3.3.

For B7, the “MFI pH 6.0/MFI pH 7.4” value came out at 16.5.

In the case of B8, the “MFI pH 6.0/MFI pH 7.4” value was found to be 23.8.

As to B9, the “MFI pH 6.0/MFI pH 7.4” value came to 8.6.

Take B10: the “MFI pH 6.0/MFI pH 7.4” value worked out at 6.1.

As to B11, the “MFI pH 6.0/MFI pH 7.4” value stood at 1.1.

For the molecule B12, the “MFI pH 6.0/MFI pH 7.4” value worked out at 3.6.

For B13, the “MFI pH 6.0/MFI pH 7.4” value was 13.8.

For B14, the “MFI pH 6.0/MFI pH 7.4” value was 13.4.

On to B15, for which the “MFI pH 6.0/MFI pH 7.4” value stood at 1.9.

As for B16, the “MFI pH 6.0/MFI pH 7.4” value is 1.1.
